The target in data set [1] is T1, Mos-1 transposase FT (Drosophila mauritiana, UniProt Q7JQ07 SEQ:1-345, F53Y,T216A).
T1 sequence: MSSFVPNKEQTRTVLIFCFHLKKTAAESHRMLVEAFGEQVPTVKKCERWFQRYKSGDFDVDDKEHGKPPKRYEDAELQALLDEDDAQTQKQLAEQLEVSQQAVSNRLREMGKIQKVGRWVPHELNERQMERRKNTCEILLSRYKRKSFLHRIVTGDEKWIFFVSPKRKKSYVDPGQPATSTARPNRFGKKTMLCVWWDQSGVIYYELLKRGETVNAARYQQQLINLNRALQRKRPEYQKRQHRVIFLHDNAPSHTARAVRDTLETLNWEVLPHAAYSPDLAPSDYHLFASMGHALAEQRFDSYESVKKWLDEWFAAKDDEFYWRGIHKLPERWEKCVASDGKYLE
The data set can be described thus: cell_activity; 3T40 transposition in E. coli T5 vs 3T3/WT. The following applies: chain copies: 2. On the procedure:
(§1) Escherichia coli JM109 bacteria were co-transformed with the pBC 3T3 plasmid (comprising a transposition reporter 2 ITR 3′ mariner-like element and the chloramphenicol resistance gene) and with the inducible vector encoding for the transposase (pKK-Tnp or pMal-Tnp) comprising the ampicillin resistance gene. The bacteria selection was performed on ampicillin (100 μg/ml) and chloramphenicol in order to verify the presence of the two plasmids.
(§2) The JM109 bacteria containing both the pBC 3T3 plasmid and the pKK-Tnp (or pMalC2X-Tnp) plasmid were placed in culture for 1 hr at 37° C. in 250 μl of LB. This inoculum was then poured into 5 ml of LB supplemented with 1 mM IPTG. The culture was titrated on LB plates (100 μl of a 1/1000 dilution) and on LB-Tet plates (12.5 μg/ml) (250 μl of the non-diluted culture). The culture induced by IPTG was then cultured for 5 hours at 32° C. (optimal temperature of transposase) under stirring (250 rpm). The bacterial suspension was then titrated on LB plates (100 μl of a 1/250,000 dilution) and on LB-tet plates (100 μl of the undiluted bacterial suspension). The plates were placed at 37° C. overnight. The following day, the colonies were counted on LB and LB-Tet plates, and the transposition frequency (equal to the number of tetracycline bacteria over the number of bacterial per 1 ml of undiluted bacterial suspension) was calculated.
(§3) In order to evaluate the transposition efficiency of systems associating a hyperactive transposase and a pseudo-transposon that is also hyperactive, various combinations were tested in the transposition test in bacteria described in part I, paragraph I-B above.

The target in data set [2] is T2, Mos-1 transposase ET (Drosophila mauritiana, UniProt Q7JQ07 SEQ:1-345, E137K,T216A).
T2 sequence: T1 sequence with Y53F, E137K
Described as above. The following applies: chain copies: 2. On the procedure:
as §1, §2, §3

Data set [3] has as its target T3, Mos-1 transposase FTY (Drosophila mauritiana, UniProt Q7JQ07 SEQ:1-345, F53Y,T216A,Y237C).
T3 sequence: T1 sequence with Y237C
Described as above. Conditions: chain copies: 2. Here is the method: as §1, §2, §3

In data set [4] the target is T4, MBP-Mos-1 transposase (MBP-Tnp) (Drosophila mauritiana, UniProt Q7JQ07 SEQ:1-345).
T4 sequence: T1 sequence with Y53F, A216T
In words: competition; competes with labelled ITR3'. The following applies: tags: N-terminal MBP (pMalC2x); chain copies: 2. Here is the method: The principle of these tests is illustrated in FIG. 9. […] The greater the shift, the greater the “improvement” of the ITRSelex sequence with respect to ITR3′. In practice, the transposase fixing reaction is carried out in 20 μl containing 10 mM of Tris pH9 buffer, 0.5 mM of DDT, 5 mM MgCl₂, 5% (vol/vol) of glycerol, 1 μg of herring sperm DNA and 100 ng of BSA, in the presence of 15 nM of radiolabelled ITR3′ and non-radiolabelled ITRSelex. The non-radiolabelled ITRSelex concentrations tested were 0 nM, 15 nM, 75 nM, 150 nM, 300 nM, 750 nM, 1500 nM.

Changes are numbered by the printed parent chain.

B1: ITR40 (dsDNA)
DNA 1: TCAGGTGTACAAGTATGTAATGTCGTTA
DNA 2: TAACGACATTACATACTTGTACACCTGA
For B1, the values for the activity in data set [1], in data set [2] and in data set [3] were 2 fold, 8.9 fold and 2.4 fold, respectively. Also, the binding result in data set [4] was “binds”.

The values above are taken from patent US20100291682, “SYSTEM FOR TRANSPOSING HYPERACTIVE RECOMBINANT DERIVATIVES OF MOS-1 TRANSPOSON” (published 2010).
